Reference: patent US20210079080A1 (Hoffmann-La Roche, published 2021)

T1: VEGF-121-His (inhouse production) (human, UniProt P15692 207-395)
T1 construct: His-tagged human VEGF-A121 used in the ELISAs and (captured by an anti-His antibody) in SPR; also called hVEGF-A121; his VEGF; not shown: His tag
T1 sequence: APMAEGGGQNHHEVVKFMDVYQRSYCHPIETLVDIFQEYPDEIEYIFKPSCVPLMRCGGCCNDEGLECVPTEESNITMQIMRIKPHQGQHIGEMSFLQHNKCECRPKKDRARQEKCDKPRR

T2: human VEGF-A121 (human, UniProt P15692 207-395)
T2 sequence: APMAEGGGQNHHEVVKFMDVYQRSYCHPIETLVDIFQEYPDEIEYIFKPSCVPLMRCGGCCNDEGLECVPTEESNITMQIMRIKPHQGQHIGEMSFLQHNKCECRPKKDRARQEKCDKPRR


Legend:
[1] = target: T1, VEGF-121-His (inhouse production); assay: SPR (Biacore), hVEGF-A121 captured by anti-His antibody, Fab injected, 37° C
Experimental: (§1) The surface was regenerated by injecting 10 mM Glycine pH 1.5 for 60s. […] Rate constants were calculated using the Langmuir 1:1 binding model within the Biacore® Evaluation software.
(§2) The affinity of the antibodies was determined by SPR using the same methods as described in Example 2. All Fab fragments as listed in table 1 and table 2 were tested.

[2] = target: T1, VEGF-121-His (inhouse production); assay: direct ELISA on plate-coated VEGF-121-His
Experimental: After washing 3 times with 90 μl/well PBST-buffer (bidest water, 10×PBS Roche #11666789001+0.1% Tween® 20) blocking buffer (bidest water, 10×PBS Roche #11666789001+2% Bovine Serum Albumin Fraction V, fatty acid free, Roche, #10735078001+0.05% Tween® 20) was added 90 μl/well and incubated for 1 h at room temperature. […] After incubation for 1 h at room temperature, plates were again washed 3 times with 90 μl/well PBST-buffer. […] After washing 3 times with 90 μl A PBST-buffer, 25 μl TMB (Roche, #11 835 033 001) was added to each well. After 3 min incubation at RT, signals were detected at 370 nm/492 nm on a Tecan Safire 2 Reader.

[3] = target: T1, VEGF-121-His (inhouse production); assay: SPR (Biacore), hVEGF-A121 captured by anti-His antibody, Fab injected, 25° C
Experimental: as §1, §2

[4] = target: T1, VEGF-121-His (inhouse production); assay: as above; remark: listed apart in the source
Experimental: as §1
(§3) The affinity of the antibodies was determined by SPR using the same methods as described in Example 2. All Fab fragments of antibodies of the invention as listed in table 1 and table 5 were tested.

[5] = target: T1, VEGF-121-His (inhouse production); assay: Biacore, Fab stressed 2 w/40° C./pH 6.0
Experimental: (§4) Antibody samples were formulated in 20 mM His/HisCl, 140 mM NaCl, pH 6.0, and were split into three aliquots: one aliquot was re-buffered into PBS, respectively, and two aliquots were kept in the original formulation. The PBS aliquot and one His/HisCl aliquot were incubated for 2 weeks (2 w) at 40° C. (His/NaCl) or 37° C. (PBS) in 1 mg/ml, the PBS sample was incubated further for total 4 weeks (4 w). The third control aliquot sample was stored at −80° C.

[6] = target: T1, VEGF-121-His (inhouse production); assay: Biacore, Fab stressed 4 w/37° C./pH 7.4
Experimental: as §4

[7] = target: T1, VEGF-121-His (inhouse production); assay: SPR (Biacore), hVEGF-A121 captured by anti-His antibody, Fab injected, 37° C; remark: listed apart in the source
Experimental: as §1, §3

human VEGF-A121 = target: T2, human VEGF-A121; assay: cell-based or functional assay
[8] = target: T1, VEGF-121-His (inhouse production); assay: inhibition ELISA: antibody titrated against 0.7 nM VEGF-121-His; blocked partner plate-bound biotinylated VEGF-R2; anti-His POD readout
Experimental: Plates were incubated for 1 h at room temperature. […] Plates were incubated for 1 h at room temperature. […] After washing 3 times with 90 μl/well PB ST-buffer, 25 μl/well detection antibody (anti His POD, Bethyl, #A190-114P, 1:12000) in 1×OSEP was added. After incubation for 1 h at room temperature plates were washed 3 times with 90 μl PBST-buffer. 25 μl TMB (Roche, #11 835 033 001) was added to all wells simultaneously. After 10 min incubation at room temperature, signals were detected at 370 nm/492 nm on a Tecan Safire 2 Reader.

[9] = target: T1, VEGF-121-His (inhouse production); assay: Biacore, Fab stressed 2 w/37° C./pH 7.4
Experimental: as §4

[10] = target: T1, VEGF-121-His (inhouse production); assay: inhibition ELISA: antibody titrated against 0.4 nM VEGF-121-His; blocked partner plate-bound biotinylated VEGF-R2; anti-His POD readout
[11] = target: T1, VEGF-121-His (inhouse production); assay: inhibition ELISA: antibody titrated against 0.7 nM VEGF-121-His; blocked partner plate-bound biotinylated VEGF-R1; anti-His POD readout

Binder	Kd [4] [nM]	VEGF-binding activity after stress (relative active concentration, normalized to unstressed aliquot) [5]	VEGF-binding activity after stress (relative active concentration, normalized to unstressed aliquot) [6]	Kd [7] [nM]	VEGF-binding activity after stress (relative active concentration, normalized to unstressed aliquot) [9]	further results
L3H6 Fab fragment (Fab, V domains shown, Prior art antibody disclosed in WO 2012089176, made here as Fab) VH: QVQLVQSGAEVKKPGESLKISCKGSGYSFTSYWIGWVRQMPGKGLEWMGIIYPGDSDTRYSPSFQGQVTISADKSISTAYLQWSSLKASDTAMYYCARQGTHNRKIWGQGTMVTVSS VL: QAVVTQEPSLTVSPGGTVTLTCASSTGAVTSGNYPNWFQQRPGQPPRALIYSTSNKHSWTPARFSGSLLGGKAALTLSGAQPEDEAEYYCRLSYDLARPVFGGGTKLTVLG						Kd [1]: 4.52 nM; EC50 (read off the curve) [2]: ~0.3 nM; Kd [3]: 3.36 nM
VEGF-0113 Fab fragment (Fab, V domains shown, Variant of VEGF-0089 (G to P at position 6 of H-CDR2); Fab with rabbit derived CLkappa and CH1) VH: EVQLVESGGGLVQPGGSLRLSCAASGFTFTNYAMTWVRQAPGKGLEWVSSIGNGPGIYTYYADSVKGRFTISRDNSKNTLYLQMNSLRAEDTAVYYCAKGDNLFDSWGPGTLVTVSS VL: DIQMTQSPASLSASVGDRVTITCRASQSIYSSLNWYQQKPGKAPKLLIYASTLQSGVPSRFSGSASGTDFTLTISSLQPEDVATYYCQQYQNFPRTFGQGTKLEIKR	0.022	103	101	0.029	103	Kd [1]: 0.017 nM; EC50 (read off the curve) [2]: ~0.3 nM; Kd [3]: 0.021 nM; IC50 in reporter gene assay (HEK293-NFAT-RE-Luc2P/KDR cells, luminescence, 25 ng/ml VEGF-A121) (human VEGF-A121): 0.63 nM; IC50 (read off the curve) [8]: ~2 nM; IC50 (read off the curve) [10]: ~0.2 nM
VEGF-P1AD8675 Fab fragment (Fab, V domains shown) VH: EVQLVESGGGLVQPGGSLRLSCAASGFTFTNYAMTWVRQAPGKGLEWVSSIGNGGGIYTYYADSVKGRFTISRDNWKNTLYLQMNSLRAEDTAVYYCAKGDNLFDSWGPGTLVTVSS VL: DIQMTQSPASLSASVGDRVTITCRASQSIYSSLNWYQQKPGKAPKLLIYASTLQSGVPSRFSGSASGTDFTLTISSLQPEDVATYYCQQYQNFPRTFGQGTKLEIKR	0.088	101	109	0.065	102	
VEGF-0114 Fab fragment (Fab, V domains shown, Fab with rabbit derived CLkappa and CH1; also called VEGR-0114 Fab) VH: EVQLVESGGGLVQPGGSLRLSCAASGFTFTNYAMTWVRQAPGKGLEWVSSIGSGGFYTYYADSVKGRFTISRDNSKNTLYLQMNSLRAEDTAVYYCAKGDNLFDSWGPGTLVTVSS VL: DIQMTQSPASLSASVGDRVTITCRASQSIYSSLNWYQQKPGKAPKLLIYASTLQSGVPSRFSGSASGTDFTLTISSLQPEDVATYYCQQYQNFPRTFGQGTKLEIKR	0.05	99	99	0.054	102	Kd [1]: 0.056 nM; EC50 (read off the curve) [2]: ~0.3 nM; Kd [3]: 0.055 nM; IC50 in reporter gene assay (HEK293-NFAT-RE-Luc2P/KDR cells, luminescence, 25 ng/ml VEGF-A121) (human VEGF-A121): 1.34 nM; IC50 (read off the curve) [10]: ~0.3 nM
VEGF-P1AE3521 Fab fragment (Fab, V domains shown) VH: EVQLVESGGGLVQPGGSLRLSCAASGFTFTNYAMTWVRQAPGKGLEWVSSIGSGGFYTYYADSVKGRFTISRDNWKNTLYLQMNSLRAEDTAVYYCAKGDNLFDSWGPGTLVTVSS VL: DIQMTQSPASLSASVGDRVTITCRASQSIYSSLNWYQQKPGKAPKLLIYASTLQSGVPSRFSGSASGTDFTLTISSLQPEDVATYYCQQYQNFPRTFGQGTKLEIKR	0.032	101	99	0.061	103	
VEGF-P1AE3520 Fab fragment (Fab, V domains shown) VH: EVQLVESGGGLVQPGGSLRLSCAASGFTFTNYAMTWVRQAPGKGLEWVSSIGNGPGIYTYYADSVKGRFTISRDNWKNTLYLQMNSLRAEDTAVYYCAKGDNLFDSWGPGTLVTVSS VL: DIQMTQSPASLSASVGDRVTITCRASQSIYSSLNWYQQKPGKAPKLLIYASTLQSGVPSRFSGSASGTDFTLTISSLQPEDVATYYCQQYQNFPRTFGQGTKLEIKR	0.031	100	101	0.039	102	
r84 full length IgG1 antibody (antibody, V domains shown, Full length IgG1; also called r84 IgG1) VH: QVQLVQSGAEVKKPGASVKVSCKASGGTFSSYAISWVRQAPGQGLEWMGGFDPEDGETIYAQKFQGRVTMTEDTSTDTAYMELSSLRSEDTAVYYCATGRSMVRGVIIPFNGMDVWGQGTTVTVSS VL: not shown						binding result [2]: binds
r84 Fab fragment (Fab, V domains shown, Prior art antibody disclosed in WO 2009060198, made here as Fab) VH: QVQLVQSGAEVKKPGASVKVSCKASGGTFSSYAISWVRQAPGQGLEWMGGFDPEDGETIYAQKFQGRVTMTEDTSTDTAYMELSSLRSEDTAVYYCATGRSMVRGVIIPFNGMDVWGQGTTVTVSS VL: not shown						binding result [2]: binds
HF2-1 Fab fragment (Fab, V domains shown, Prior art antibody disclosed in EP3006465) VH: EVQLVESGGGLVQPGGSLRLSCAASNFVFRSHGMQWVRQAPGKGLEYVAGISSDGSWTGYGAAVEGRFTISRDDSKNTAYLQMNSLRAEDTAVYYCARDFSTGYGADSIDAWGQGTLVTVSS VL: DIQMTQSPSSLSASVGDRVTITCSGGSDSAYGYGWYQQKPGKAPKTLIYWDDKRPSGVPSRFSGSRSGTDFTLTISSLQPEDFATYYCGAWEYSGGVGIFGQGTKVEIKR	0.279			0.574		
HF2-11 Fab fragment (Fab, V domains shown, Prior art antibody disclosed in EP3006465) VH: EVQLVESGGGLVQPGGSLRLSCAASGFLIRSHGMQWVRQAPGKGLEYVAGISSDGSWVKVAAAVEGRFTISRDDSKNTAYLQMNSLRAEDTAVYYCARDFSTGYGADSIDAWGQGTLVTVSS VL: DIQMTQSPSSLSASVGDRVTITCSGGSSEPLGYGWYQQKPGKAPKTLIYWDDKRPSGVPSRFSGSRSGTDFTLTISSLQPEDFATYYCGAWEYSGGVGIFGQGTKVEIKR	0.032			0.062		IC50 (read off the curve) [11]: ~1 nM
HF2-9 Fab fragment (Fab, V domains shown, Prior art antibody disclosed in EP3006465) VH: EVQLVESGGGLVQPGGSLRLSCAASMFRIRSHGMQWVRQAPGKGLEYVAGISSDGSWFRVAAAVEGRFTISRDDSKNTAYLQMNSLRAEDTAVYYCARDFSTGYGADSIDAWGQGTLVTVSS VL: DIQMTQSPSSLSASVGDRVTITCSGGSMEPLGYGWYQQKPGKAPKTLIYWDDKRPSGVPSRFSGSRSGTDFTLTISSLQPEDFATYYCGAWEYSGGVGIFGQGTKVEIKR	0.024			0.051		IC50 (read off the curve) [11]: ~0.7 nM
